The target in test [1] is recombinant EGFR (Homo sapiens, UniProt P00533). In words: Solid-phase binding assay (ELISA) of anti-EGFR activatable antibodies. The conditions noted are these: compared to activatable antibodies with control CM 2001. In general terms: ELISA stands for enzyme-linked immunosorbent assay.
In test [2] the target is T1, MMP2 (Homo sapiens, UniProt P08253).
T1 sequence (P08253 110-660): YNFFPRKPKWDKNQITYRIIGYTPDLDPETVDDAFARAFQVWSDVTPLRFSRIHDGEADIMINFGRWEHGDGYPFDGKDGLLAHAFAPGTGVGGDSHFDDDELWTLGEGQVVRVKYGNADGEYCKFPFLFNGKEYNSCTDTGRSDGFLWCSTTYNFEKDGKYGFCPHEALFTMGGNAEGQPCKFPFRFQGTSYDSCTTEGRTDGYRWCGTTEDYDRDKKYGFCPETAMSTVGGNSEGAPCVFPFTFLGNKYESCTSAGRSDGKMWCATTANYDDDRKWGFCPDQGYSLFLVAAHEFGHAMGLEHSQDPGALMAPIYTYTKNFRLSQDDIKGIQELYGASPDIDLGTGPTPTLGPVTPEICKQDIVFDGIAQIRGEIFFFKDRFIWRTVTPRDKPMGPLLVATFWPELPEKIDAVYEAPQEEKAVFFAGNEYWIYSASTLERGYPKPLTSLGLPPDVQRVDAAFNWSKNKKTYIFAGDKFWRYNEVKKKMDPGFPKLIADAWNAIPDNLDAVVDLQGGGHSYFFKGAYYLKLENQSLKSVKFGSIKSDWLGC
Put plainly: Internally quenched peptide probe cleavage assay (Example 8). The format is biochemical. Particulars: 20 μM peptide probe, 20 nM protease, 37° C. An excerpt: (§1) The study provided herein evaluated the cleavability kinetics (i.e., pM/s and kcat/KM (M^−1 s^−1) of CMs with matriptase (MT-SP1) and matrix metalloprotease (MMP) 2 (MMP2), MMP9, and MMP14. The CMs listed in Table 10 below were presented in an internally quenched peptide probe format, rather than included in an activatable antibody format. In the internally quenched probes, the CM sequence was positioned between a 7-methoxycoumarin-4-acetyl (MCA) fluorophore and a 2,4-dinitrophenyl (DNP) quencher such that cleavage of the CM sequence produced a fluorescence signal. The probes were of the following designs: (MCA)-Gly-Ser-X1-X2-Pro-X3-Gly-Leu-X4-X5-Gly-Ser-Lys (DNP)-D-Arg (SEQ ID NO: 178) where X1 is Arg or is absent, X2 is Ser or is absent, X3 is Met or Trp, X4 is Lys, Arg, or is absent, and X5 is Ser or is absent; (MCA)-Ser-X1-Pro-X2-Gly-Leu-X3-X4-Gly-Ser-Lys (DNP)-D-Arg (SEQ ID NO: 179) where X1 is Ala, X2 is Met, X3 is Lys, and X4 is His; and (MCA)-Gly-Ser-Pro-X1-Gly-Leu-X2-Gly-Gly-Ser-Lys (DNP)-D-Arg (SEQ ID NO: 180) where X1 is Met and X2 is Lys, as indicated in Table 10. The cleavage rates (pM/s) were measured using 20 μM internally quenched peptide probe and 20 nM MT-SP1, MMP2, MMP9, or MMP14. Cleavability kinetics (i.e., pM/s and kcat/KM (M^−1 s^−1)) were measured at 37° C. in 96- or 384-well plate format in the following buffers: 50 mM TRIS-HCl (pH 7.4), 150 mM NaCl, 0.05% Tween 20 for MT-SP1, 50 mM Tris-HCl (pH 7.5), 10 mM CaCl2, 150 mM NaCl, 0.05% (w/v) Brij-35 for MMP2 and MMP9, and 50 mM HEPES (pH 6.8), 10 mM CaCl2), 0.5 mM MgCl2, 0.05% (w/v) Brij-35 for MMP14. Cleavability kinetics were determined on an Infinite 200 PRO (Tecan) multimode plate reader using a fluorescence excitation wavelength of 320 nm and an emission wavelength of 405 nm.

Test [3] has as its target T2, MT-SP1 (Homo sapiens, UniProt Q9Y5Y6).
T2 sequence (Q9Y5Y6 615-855 limits assumed): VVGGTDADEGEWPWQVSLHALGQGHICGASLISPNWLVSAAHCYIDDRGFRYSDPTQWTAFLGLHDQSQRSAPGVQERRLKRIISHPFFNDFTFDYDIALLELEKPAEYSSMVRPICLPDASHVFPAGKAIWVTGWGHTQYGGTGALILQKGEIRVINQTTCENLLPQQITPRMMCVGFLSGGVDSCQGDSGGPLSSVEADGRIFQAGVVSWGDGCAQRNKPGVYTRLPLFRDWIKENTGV
The test is described as above. The format is biochemical. The conditions noted are these: 20 μM peptide probe, 20 nM protease, 37° C.
Excerpt: as §1

Test [4] concerns the target MMP14 (Homo sapiens, UniProt P50281). The description is as above. The conditions noted are these: 20 μM peptide probe, 20 nM protease, 37° C. The format is biochemical.
Excerpt: as §1

Test [5] deals with T3, MMP9 (Homo sapiens, UniProt P14780). Described as above. In kind it is biochemical. Particulars: 20 μM peptide probe, 20 nM protease, 37° C.
Excerpt: as §1

In test [6] the target is T3, MMP9. In words: In vitro cleavability of activatable antibodies, capillary electrophoresis. The format is biochemical. The arrangement: purchased R&D Systems 911-MP.
Test [7] has as its target T2, MT-SP1. The description is as above. In kind it is biochemical. The arrangement: purchased R&D Systems 3946-SEB. The procedure:
The studies provided herein evaluate the in vitro cleavability of activatable antibodies containing exemplary CMs that include a substrate cleavable by a matrix metalloprotease (MMP) and/or a substrate cleavable by a matriptase (MT-SP1).
Each activatable antibody (500 nM) was incubated with 10 nM of the indicated single protease for 4 hours at 37° C. Human recombinant proteases were purchased from R&D Systems: MT-SP1 (catalog No: 3946-SEB), MMP2 (catalog No: 902-MP), MMP9 (catalog No: 911-MP), and MMP14 (catalog No: 918-MP). […] Protease concentrations were determined by active site titration. Activity assays were performed in the following buffers: 50 mM TRIS-HCl (pH 7.4), 150 mM NaCl, 0.05% Tween 20 for MT-SP1, 50 mM Tris-HCl, 10 mM CaCl2), 150 mM NaCl, 0.05% (w/v) Brij-35, pH 7.5 for MMP2 and MMP9, and 50 mM HEPES (pH 6.8), 10 mM CaCl2), 0.5 mM MgCl2 for MMP14. Following incubation, the presence of cleavage product was determined by capillary electrophoresis for each protease enzyme using a LabChip GXII Touch system (Perkin Elmer) with the HT Protein Express 100 protocol (Perkin Elmer). LabChip GXII Touch HT Chips (Perkin Elmer #760499) were set up using the protocol of the Protein Express Assay Reagent Kit (Perkin Elmer #CLS960008).

T3 sequence (P14780 107-707 limits assumed): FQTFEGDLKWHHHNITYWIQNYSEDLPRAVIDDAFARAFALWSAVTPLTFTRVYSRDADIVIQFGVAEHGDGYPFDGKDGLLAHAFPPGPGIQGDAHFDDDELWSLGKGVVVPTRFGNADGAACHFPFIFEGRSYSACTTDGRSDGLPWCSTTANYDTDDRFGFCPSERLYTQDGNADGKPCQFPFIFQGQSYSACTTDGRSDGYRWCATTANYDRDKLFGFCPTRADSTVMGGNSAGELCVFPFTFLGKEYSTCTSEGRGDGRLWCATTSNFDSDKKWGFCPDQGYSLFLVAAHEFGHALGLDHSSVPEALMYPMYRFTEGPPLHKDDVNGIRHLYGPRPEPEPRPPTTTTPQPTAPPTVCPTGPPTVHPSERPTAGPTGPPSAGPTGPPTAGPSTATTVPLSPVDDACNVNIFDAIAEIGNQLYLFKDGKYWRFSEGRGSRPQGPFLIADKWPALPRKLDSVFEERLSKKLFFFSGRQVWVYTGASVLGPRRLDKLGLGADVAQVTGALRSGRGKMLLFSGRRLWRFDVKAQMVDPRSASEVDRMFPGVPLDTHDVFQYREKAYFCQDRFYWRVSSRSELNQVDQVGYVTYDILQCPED

On to “APMGLKH [CM 7046, also tested as internally quenched peptide probe]”, for which the “effect of CM on apparent masking efficiency” value in test [1] was “increasing the apparent masking efficiency”. Moreover, the “Probe Cleavage (pM/s) MMP2” value in test [2] was 81700 pM/s. The “Probe Cleavage (pM/s) MT-SP1” value in test [3] is on record as 3330 pM/s. The “Probe Cleavage (pM/s) MMP14” value in test [4] was determined as 114000 pM/s. Also, the “Probe Cleavage (pM/s) MMP9” value in test [5] is given as 115000 pM/s. Besides, in test [6] (500 nM activatable antibody, 10 nM protease, 4 hours at 37° C.), the “Cleavability (%) 4h MMP9” value stood at 45.1%. In addition, the “percent activation for MMP9” value in test [6] (Tables 6A-6C, activatable antibody format) is on record as “greater than 30%”. Further, the “Cleavability (%) 4h MT-SP1” value in test [7] was 5.37%.
